In paper PMC3176292, “Mutations in Protein-Binding Hot-Spots on the Hub Protein Smad3 Differentially Affect Its Protein Interactions and Smad3-Regulated Gene Expression” (PLoS ONE, 2011):
Residue numbers refer to the chain shown, from its start.

B1: Renilla luciferase-Smad3 R268A (natural protein, UniProt P84022 1-425, looked up)
chain: MSSILPFTPPIVKRLLGWKKGEQNGQEEKWCEKAVKSLVKKLKKTGQLDELEKAITTQNVNTKCITIPRSLDGRLQVSHRKGLPHVIYCRLWRWPDLHSHHELRAMELCEFAFNMKKDEVCVNPYHYQRVETPVLPPVLVPRHTEIPAEFPPLDDYSHSIPENTNFPAGIEPQSNIPETPPPGYLSEDGETSDHQMNHSMDAGSPNLSPNPMSPAHNNLDLQPVTYCEPAFWCSISYYELNQRVGETFHASQPSMTVDGFTDPSNSEAFCLGLLSNVNRNAAVELTRRHIGRGVRLYYIGGEVFAECLSDSAIFVQSPNCNQRYGWHPATVCKIPPGCNLKIFNNQEFAALLAQSVNQGFEAVYQLTRMCTIRMSFVKGWGAEYRRQTVTSTPCWIELHLNGPLQWLDKVLTQMGSPSIRCSSVS
notes: Smad3; source: HEK-293, transfected together with constitutively active Alk5, in lysate
B2: Renilla luciferase-Smad3 Y384A (natural protein, UniProt P84022 1-425, looked up)
chain: B1 chain with A268R, Y384A
notes: as for B1
B3: Renilla luciferase-Smad3 Y238A (natural protein, UniProt P84022 1-425, looked up)
chain: B1 chain with Y238A, A268R
notes: as for B1
B4: Renilla luciferase-Smad3 R292A (natural protein, UniProt P84022 1-425, looked up)
chain: B1 chain with A268R, R292A
notes: as for B1

The binders below were run against T1, Flag-Smad3, full length (UniProt P84022 1-425) (assay: co-IP; LUMIER: Renilla luciferase-Smad3 and Flag-tagged partner co-expressed with constitutively active Alk5 in HEK-293; Flag protein captured from cleared lysate (TNE: 10 mM Tris-HCl pH 7.8, 150 mM NaCl, 1 mM EDTA, 1% Igepal CA-630) on anti-Flag 96-well plates, 2 h at 4 °C; co-precipitated Renilla luciferase activity, TrxGA background subtracted, percent of wild-type Smad3). Details: partners not purified.
T1 construct: Smad3; plasmid pCMV5-Flag-Smad3 (from J. Massagué); bait for Smad3-Smad3 association; also called Smad3 FL; source: HEK-293, transfected together with constitutively active Alk5, in lysate
With B1 the “percent binding relative to wild-type Smad3” value was 27%. With B2 the “percent binding relative to wild-type Smad3” value was 28%. In the case of B3, the “percent binding relative to wild-type Smad3” value is reported as 24%. B4 was tested, and the “percent binding relative to wild-type Smad3” value was 49%.
